Assay in all cases: pull-down binding Z-score (relative to library population); higher = stronger binding
Data set [1] concerns TO-3-N3 (biotin conjugate). The following applies: RNA library: Library-2. An outline of the steps: (§1)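 To score binding, a beads-only signal was subtracted, barcoded replicate probes were averaged with the highest and lowest dropped, and the value was converted to a Z-score using the library mean and standard deviation. The input was 1 μg of Cy5- or Cy3-end-labelled RNA library, heat-folded in phosphate/NaCl/KCl buffer and mixed for 60 min at 25 °C with streptavidin beads carrying 100 pmol of biotin-conjugated small molecule. Bound RNA was eluted in hot SDS and hybridised to a DNA barcode microarray at 55.5 °C for 20 h.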

Data set [2] deals with TO-3-N3-2 (biotin conjugate). The following applies: RNA library: Library-2. An outline of the steps:
as §1

Another data set has as its system TO-N3 (biotin conjugate). The note with it: RNA library: Library-2. In short, it runs like this:
as §1

The test system of data set [3] is TO-N3-2 (biotin conjugate). The following applies: RNA library: Library-2. In short, it runs like this:
as §1

Data set [4] relates to G-clamp-N3 (biotin conjugate). The following applies: RNA library: Library-1 (pre-miRNA loops + repeats). An outline of the steps:
as §1

The values below come from the supplement of paper PMC11865577.

On to “GUGCACUUGACCCUCUCUCAGAAACAAAGUGUAC [SHAPE_invivo_SARS-CoV-2_Motif_422]”, for which the “pull-down binding Z-score” value in data set [1] was 0.278; in data set [2], -0.137; in the data set with TO-N3 (biotin conjugate) it was 0.229; in data set [3], -0.312.

In the case of “CCCAUCCGUGGGUGGG [IAV_invivo_NA_6_Motif_4+IAV_invivo_NA_6_Motif_4]”, the “pull-down binding Z-score” value in data set [1] is -0.525; in data set [2], -0.239; in the data set with TO-N3 (biotin conjugate), -0.897; in data set [3], -0.95.

Consider “UGUGGACAAGGGCCUUGUCUUAGACAGUCACU [hsa-mir-4318]”, for which the “pull-down binding Z-score” value in data set [4] was -0.432; in data set [1] it was 0.603; in data set [2], 0.359; in the data set on TO-N3 (biotin conjugate), 0.983.

Take “AUGGUCUUUGUUCUUUUUUUUGUAUGAAAAUGCCUUUUUACCUUUUGCUAUGGGUAUUAUUGCUAU”: the “pull-down binding Z-score” value in data set [1] is -0.455; in data set [2] it was 0.135; with TO-N3 (biotin conjugate) it was -0.507; in data set [3] it was -0.569.

As for “GGCUAUGGUUUCCAGAGCC [IAV_invivo_PB1_2_Motif_37+IAV_invivo_PB1_2_Motif_37]”, the “pull-down binding Z-score” value in data set [1] was 0.417; in data set [2] it was -0.179; with TO-N3 (biotin conjugate), 0.285; in data set [3], -0.356.

AACUGAAAGUAAACCUUCAGUU: the “pull-down binding Z-score” value is -0.172 in data set [1], -0.384 in data set [2], -0.401 in the data set on TO-N3 (biotin conjugate) and -1.3 in data set [3].

With “GUGUAUGCUGCUGACCCUGCUAUGCACGCUGCUUCUGGUAAUCUAUUACUAGAUAAACGCACUACGUGCUUUUCAGUAGCUGCAC”, the “pull-down binding Z-score” value in data set [1] amounted to 0.39; in data set [2], 0.434; with TO-N3 (biotin conjugate), 0.772; in data set [3], 0.698.

As to “UCCUGUUUACCUUUUACAAUUAAUUGCCAGGA [SHAPE_invivo_SARS-CoV-2_Motif_533]”, the “pull-down binding Z-score” value in data set [1] is -0.84; in data set [2] it was -0.351; in the data set on TO-N3 (biotin conjugate) it was -1.01; in data set [3], 0.272.

Consider ACAGAUCUUUACCAGGAGUUUUCUGU, for which the “pull-down binding Z-score” value in data set [1] was -0.933; in data set [2], -0.827; in the data set on TO-N3 (biotin conjugate), -1.28; in data set [3] it was -1.3.

In the case of “UGGGGUUGGGGUUGGGGUUGGGGUUGGGGUUGGGGUUGGGGUUGGGGU [G4_(UGGGGU)8]”, in data set [4], the “pull-down binding Z-score” value is 1.45.

“GCUGGUAAUGUUCAACUCAGGGUUAUUGGACAUUCUAUGC [SHAPE_invivo_SARS-CoV-2_Motif_203]”: the “pull-down binding Z-score” value was -0.362 in data set [1], -0.104 in data set [2], -0.313 in the data set on TO-N3 (biotin conjugate) and -0.0925 in data set [3].

In the case of “ACAGACUUCAUUAAGAUGUGGUGCUUGCAUACGUAGACCAUUCUUAUGUUGUAAAUGCUGUUACGACCAUGUCAUAUCAACAUCACAUAAAUUAGUCUUGUCUGU”, the “pull-down binding Z-score” value in data set [1] is -0.753; in data set [2] it was -0.127; in the data set on TO-N3 (biotin conjugate), -0.512; in data set [3], -0.489.

With “CUACAAAGCAACCAUGAUCUGUAUUGUCAAGUCCAUGGUAAUGCACAUGUAG”, the “pull-down binding Z-score” value was -0.654 in data set [1], -0.092 in data set [2], -0.227 in the data set with TO-N3 (biotin conjugate) and 0.374 in data set [3].

As to “GGUACAACAACUUACAAAUUAAAUGUUGGUGAUUAUUUUGUGCU [SHAPE_invivo_SARS-CoV-2_Motif_319]”, the “pull-down binding Z-score” value in data set [1] was -0.537; in data set [2], -0.134; in the data set with TO-N3 (biotin conjugate) it was -0.509; in data set [3] it was -0.524.

As for “GCAGAGACAGAAGAAACAGCAAACUGUGACUCUUCUUCCUGC”, the “pull-down binding Z-score” value was -0.211 in data set [1], -0.128 in data set [2], -0.156 in the data set with TO-N3 (biotin conjugate) and 0.0897 in data set [3].

With UCUAACUUUAGAGUCCAACCAACAGAAUCUAUUGUUAGA, the “pull-down binding Z-score” value is 0.171 in data set [1], -0.138 in data set [2], -0.148 in the data set with TO-N3 (biotin conjugate) and -0.918 in data set [3].

Regarding “GUAAUGAUCCAUUUUUGGGUGUUUAUUAC [DMSMaPseq_invitro_SARS-CoV-2_Motif_387]”, the “pull-down binding Z-score” value in data set [1] is -0.1; in data set [2], -0.129; in the data set on TO-N3 (biotin conjugate), -0.308; in data set [3], -0.998.

Regarding “UAGCUGGUUUUGCUA [SHAPE_invivo_SARS-CoV-2_Motif_257]”, the “pull-down binding Z-score” value is 0.71 in data set [1], 0.105 in data set [2], 0.281 in the data set with TO-N3 (biotin conjugate) and -0.612 in data set [3].

Consider UGCAGAUUUGGAUGAUUUCUCCAAACAAUUGCA, for which the “pull-down binding Z-score” value in data set [1] was 0.0526; in data set [2], -0.117; with TO-N3 (biotin conjugate), -0.0544; in data set [3], -0.51.

As for “AGGUCAAAUCAAUGAUAUGAUUUUAUCU [SHAPE_invitro_SARS-CoV-2_Motif_388]”, the “pull-down binding Z-score” value in data set [1] is -0.87; in data set [2], -0.624; in the data set with TO-N3 (biotin conjugate) it was -1.31; in data set [3] it was -1.35.

Turning to “AUGAAUCUCUCAU [SHAPE_invivo_SARS-CoV-2_Motif_473]”, the “pull-down binding Z-score” value in data set [1] is -0.104; in data set [2] it was -0.347; in the data set on TO-N3 (biotin conjugate) it was -0.427; in data set [3], -0.958.

AUCUGAAUUCUUCUAGAGUUCCUGAU: the “pull-down binding Z-score” value in data set [1] is 0.655; in data set [2], -0.168; in the data set with TO-N3 (biotin conjugate) it was 0.466; in data set [3], -0.858.

As for “AGUGUAAAAGUGCCUUUUACAUU [DMSMaPseq_invitro_SARS-CoV-2_Motif_79]”, the “pull-down binding Z-score” value was -0.69 in data set [1], -0.399 in data set [2], -0.863 in the data set on TO-N3 (biotin conjugate) and -1.12 in data set [3].

As for “AAACCUAAUGAAUUAUCUAGAGUAUUAGGUUU [SHAPE_invitro_SARS-CoV-2_Motif_132]”, the “pull-down binding Z-score” value in data set [1] was -0.888; in data set [2] it was -0.157; with TO-N3 (biotin conjugate), -0.985; in data set [3] it was -1.06.

In the case of AUUGUUACAUAAACCUAUUGUUUGGCAUGUUAACAAU, the “pull-down binding Z-score” value in data set [1] is -0.915; in data set [2], -0.197; with TO-N3 (biotin conjugate) it was -0.895; in data set [3], -0.663.

Regarding “ACAUUACACCAUGU [SHAPE_invivo_SARS-CoV-2_Motif_439]”, the “pull-down binding Z-score” value in data set [1] is -0.779; in data set [2], -0.6; with TO-N3 (biotin conjugate), -1.07; in data set [3], -0.865.

With “UCUGUACCGUCUGCGGUAUGUGGA [DMSMaPseq_invitro_SARS-CoV-2_Motif_240]”, the “pull-down binding Z-score” value in data set [1] is -0.562; in data set [2], -0.475; with TO-N3 (biotin conjugate) it was -0.694; in data set [3], 0.111.

With GUUGGAUAAUGAUGCACUCAACAACAUUAUCAAC, the “pull-down binding Z-score” value is -0.974 in data set [1], -0.75 in data set [2], -1.35 in the data set on TO-N3 (biotin conjugate) and -0.9 in data set [3].

For the sequence “UGUUGUAAAUAAGGGACACUUUGAUGGACAACA [DMSMaPseq_invitro_SARS-CoV-2_Motif_348]”, the “pull-down binding Z-score” value in data set [1] was -0.73; in data set [2], -0.178; with TO-N3 (biotin conjugate), -0.488; in data set [3], 0.325.

On to GGUCCAGAACAAACCCAAGGAAAUUUUGGGGACC, for which the “pull-down binding Z-score” value in data set [1] is 0.213; in data set [2], 0.197; in the data set on TO-N3 (biotin conjugate) it was 0.0164; in data set [3], -0.00332.

For “CCAUGGGACAGGAACAGGAUACACCAUGG [IAV_invivo_PB1_2_Motif_4+IAV_invivo_PB1_2_Motif_4]”, the “pull-down binding Z-score” value was -0.411 in data set [1], 0.154 in data set [2], -0.056 in the data set with TO-N3 (biotin conjugate) and 0.927 in data set [3].

As to AAAAACACCCAAGAAGUUUUU, the “pull-down binding Z-score” value in data set [1] was -0.552; in data set [2], -0.458; in the data set with TO-N3 (biotin conjugate), -0.802; in data set [3], -0.932.

In the case of “UCAUAACAGAUGCGCAAACAGGUUCAUCUAAGUGUGUGUGUUCUGUUAUUGA [SHAPE_invivo_SARS-CoV-2_Motif_383]”, the “pull-down binding Z-score” value was -0.657 in data set [1], -0.455 in data set [2], -0.196 in the data set with TO-N3 (biotin conjugate) and 1.78 in data set [3].
